Test results from patent US5210024A, “Isolation of strains of Saccharomyces cerevisiae having altered α-acetyltransferase activity” (priority 1991, dated 1993).
Ends that are not written are not given here.

How the values were obtained:
[1] = biological target: T1, N^α -AT (AAA1 N^α -acetyltransferase) (Saccharomyces cerevisiae, UniProt P07347+P12945); experiment: N^α-acetylation of synthetic peptides by AAA1 N^α-acetyltransferase ([3H]acetyl coenzyme A incorporation); type: biochemical; set-up: concentration or dose not given beside the values
T1 construct: isolates N^α -acetyltransferase by treating yeast cells with lyticase; endogenous in cells; host or cells: Saccharomyces cerevisiae cells (native enzyme)
T1 sequence (P12945 2-854): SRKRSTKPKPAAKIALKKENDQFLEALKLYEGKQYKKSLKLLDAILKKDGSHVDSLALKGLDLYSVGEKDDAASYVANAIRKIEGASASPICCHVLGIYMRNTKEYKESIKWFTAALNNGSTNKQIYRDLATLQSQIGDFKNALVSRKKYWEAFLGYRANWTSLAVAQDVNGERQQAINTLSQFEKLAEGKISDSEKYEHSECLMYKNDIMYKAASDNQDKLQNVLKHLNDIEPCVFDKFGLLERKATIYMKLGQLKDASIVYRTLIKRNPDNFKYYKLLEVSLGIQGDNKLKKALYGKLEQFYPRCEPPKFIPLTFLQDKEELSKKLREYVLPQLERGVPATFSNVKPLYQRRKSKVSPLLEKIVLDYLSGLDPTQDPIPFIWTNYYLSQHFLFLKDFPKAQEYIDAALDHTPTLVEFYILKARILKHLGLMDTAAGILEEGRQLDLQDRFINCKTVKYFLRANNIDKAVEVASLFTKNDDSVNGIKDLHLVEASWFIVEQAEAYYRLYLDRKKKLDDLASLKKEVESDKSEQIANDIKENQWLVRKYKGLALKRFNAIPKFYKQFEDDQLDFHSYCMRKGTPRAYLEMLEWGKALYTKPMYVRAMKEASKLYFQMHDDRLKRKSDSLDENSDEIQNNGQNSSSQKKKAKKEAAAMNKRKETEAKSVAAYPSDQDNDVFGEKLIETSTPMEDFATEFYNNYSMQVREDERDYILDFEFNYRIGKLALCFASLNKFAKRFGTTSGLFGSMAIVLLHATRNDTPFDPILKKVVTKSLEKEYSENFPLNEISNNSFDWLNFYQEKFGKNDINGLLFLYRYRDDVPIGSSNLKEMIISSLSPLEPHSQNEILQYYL
T1 sequence (P07347 1-238): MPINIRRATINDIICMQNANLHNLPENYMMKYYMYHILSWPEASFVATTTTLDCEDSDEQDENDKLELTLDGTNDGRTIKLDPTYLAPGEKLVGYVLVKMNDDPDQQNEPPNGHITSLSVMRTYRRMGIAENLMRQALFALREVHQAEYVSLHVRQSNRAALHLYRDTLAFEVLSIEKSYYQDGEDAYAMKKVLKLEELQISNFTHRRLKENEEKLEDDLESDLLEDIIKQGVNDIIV
Description: (§1) Aliquots of the lysate were added to 1.5 ml Eppendorf tubes containing a reaction mixture of 50 mM HEPES, pH 7.4, 150 mM KCl, 1 mM DTT, 25 μM[^3 H]acetyl coenzyme A (0.5 μCi) and 50 μM ACTH (1-24) with an adjusted final volume of 100 μl. The assay mixture was incubated at 30 C for 30 min. The reaction was stopped by adding 0.5 M acetic acid and chilled in an ice bath. […] The radioactivity in the control represented acetylation of endogenous compounds is subtracted from each sample determination. One unit of activity is defined as 1 pmol of acetyl residues incorporated into ACTH (1-24) under standard assay conditions.
(§2) This second N^α -acetyltransferase is a methionine N^α -acetyltransferase activity, and is designated as "M-N^α -AT." This second N^α -acetyltransferase is the subject of U.S. patent application of John A. Smith and Fang-Jen S. Lee, filed Oct. […] In order to compare the relative specificity and activity of the AAA1 N^α -acetyltransferase ("N^α -AT") of the present invention with the methionine N^α -acetyltransferase activity (M-N^α -AT) of U.S. patent application of John A. Smith and Fang-Jen S. Lee, filed Oct. […] These peptides were assessed for their ability to serve as substrates for the two enzymes. In Table 2, the effect of the amino terminal amino acid on activity is investigated; in Table 3, the effect of the penultimate amino terminal amino acid on activity is investigated.

[2] = biological target: T2, M-N^α -AT (methionine N^α -acetyltransferase) (Saccharomyces cerevisiae, UniProt Q06504); experiment: N^α-acetylation of synthetic peptides by methionine N^α-acetyltransferase; type: biochemical; set-up: concentration or dose not given beside the values
T2 construct: endogenous in cells; host or cells: Saccharomyces cerevisiae aaa1 (AAA1-null) mutant
T2 sequence (Q06504 1-195): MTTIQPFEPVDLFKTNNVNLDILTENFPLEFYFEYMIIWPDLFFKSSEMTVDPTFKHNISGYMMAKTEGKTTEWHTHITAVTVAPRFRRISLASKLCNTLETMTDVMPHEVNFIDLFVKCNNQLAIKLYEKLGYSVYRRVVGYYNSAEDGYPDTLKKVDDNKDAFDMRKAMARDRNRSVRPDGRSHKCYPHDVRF
T2 sequence (Q12387 2-796 partner limits assumed): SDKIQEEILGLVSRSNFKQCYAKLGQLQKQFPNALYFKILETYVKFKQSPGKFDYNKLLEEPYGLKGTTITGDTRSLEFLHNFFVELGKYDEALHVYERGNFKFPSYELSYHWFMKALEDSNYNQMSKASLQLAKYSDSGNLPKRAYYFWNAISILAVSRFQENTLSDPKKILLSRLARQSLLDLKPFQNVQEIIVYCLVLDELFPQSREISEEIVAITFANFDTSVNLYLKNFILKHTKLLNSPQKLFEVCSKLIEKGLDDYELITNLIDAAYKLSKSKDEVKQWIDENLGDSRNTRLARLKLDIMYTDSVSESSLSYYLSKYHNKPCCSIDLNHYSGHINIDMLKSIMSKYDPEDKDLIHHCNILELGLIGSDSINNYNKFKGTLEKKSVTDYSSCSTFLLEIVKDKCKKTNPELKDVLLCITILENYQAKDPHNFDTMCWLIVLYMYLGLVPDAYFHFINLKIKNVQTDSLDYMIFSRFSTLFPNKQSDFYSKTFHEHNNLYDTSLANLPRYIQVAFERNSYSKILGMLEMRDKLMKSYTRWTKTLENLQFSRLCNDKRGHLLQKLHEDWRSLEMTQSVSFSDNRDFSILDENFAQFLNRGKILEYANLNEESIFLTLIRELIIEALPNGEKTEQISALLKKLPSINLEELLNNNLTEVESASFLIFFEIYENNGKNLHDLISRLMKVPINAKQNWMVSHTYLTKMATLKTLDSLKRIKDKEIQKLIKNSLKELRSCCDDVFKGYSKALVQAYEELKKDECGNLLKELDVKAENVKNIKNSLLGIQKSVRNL
Description: as §1, §2

[3] = Table 2: relative activity for N^α-acetylation of synthetic peptide substrate, influence of the amino terminal residue
[4] = Table 3: relative activity for N^α-acetylation of synthetic peptide substrate, influence of the penultimate amino terminal residue

Row | Substance | Activity (%) (mean activity ± S.D.) N^α -AT [1, 3] | Activity (%) (mean activity ± S.D.) M-N^α -AT [2, 3] | Activity (%) (mean activity ± S.D.) N^α -AT [1, 4] | Activity (%) (mean activity ± S.D.) M-N^α -AT [2, 4]
1 | AIPETQKGVIFYESHGKLEYKDIP (AIPETQKGVIFYESHGKLEYKDIP) | 0 | 0 | – | –
2 | CIPETQKGVIFYESHGKLEYKDIP (CIPETQKGVIFYESHGKLEYKDIP) | 0 | 0 | – | –
3 | DIPETQKGVIFYESHGKLEYKDIP (DIPETQKGVIFYESHGKLEYKDIP) | 0 | 0 | – | –
4 | EIPETQKGVIFYESHGKLEYKDIP (EIPETQKGVIFYESHGKLEYKDIP) | 0 | 0 | – | –
5 | FIPETQKGVIFYESHGKLEYKDIP (FIPETQKGVIFYESHGKLEYKDIP) | 9 ± 2 | 0 | – | –
6 | GIPETQKGVIFYESHGKLEYKDIP (GIPETQKGVIFYESHGKLEYKDIP) | 23 ± 3 | 0 | – | –
7 | HIPETQKGVIFYESHGKLEYKDIP (HIPETQKGVIFYESHGKLEYKDIP; also: tritium label) | 19 ± 2 | 0 | – | –
8 | IIPETQKGVIFYESHGKLEYKDIP (IIPETQKGVIFYESHGKLEYKDIP) | 0 | 0 | – | –
9 | KIPETQKGVIFYESHGKLEYKDIP (KIPETQKGVIFYESHGKLEYKDIP) | 0 | 0 | – | –
10 | LIPETQKGVIFYESHGKLEYKDIP (LIPETQKGVIFYESHGKLEYKDIP) | 0 | 0 | – | –
11 | MIPETQKGVIFYESHGKLEYKDIP (MIPETQKGVIFYESHGKLEYKDIP) | 15 ± 2 | 0 | – | –
12 | NIPETQKGVIFYESHGKLEYKDIP (NIPETQKGVIFYESHGKLEYKDIP) | 0 | 0 | – | –
13 | PIPETQKGVIFYESHGKLEYKDIP (PIPETQKGVIFYESHGKLEYKDIP) | 70 ± 4 | 0 | – | –
14 | QIPETQKGVIFYESHGKLEYKDIP (QIPETQKGVIFYESHGKLEYKDIP) | 0 | 0 | – | –
15 | RIPETQKGVIFYESHGKLEYKDIP (RIPETQKGVIFYESHGKLEYKDIP) | 0 | 0 | – | –
16 | SAPETQKGVIFYESHGKLEYKDIP (SAPETQKGVIFYESHGKLEYKDIP) | – | – | 168 ± 8 | 0
17 | SCPETQKGVIFYESHGKLEYKDIP (SCPETQKGVIFYESHGKLEYKDIP) | – | – | 136 ± 7 | 0
18 | SDPETQKGVIFYESHGKLEYKDIP (SDPETQKGVIFYESHGKLEYKDIP) | – | – | 171 ± 9 | 0
19 | SEPETQKGVIFYESHGKLEYKDIP (SEPETQKGVIFYESHGKLEYKDIP) | – | – | 121 ± 6 | 0
20 | SFPETQKGVIFYESHGKLEYKDIP (SFPETQKGVIFYESHGKLEYKDIP) | – | – | 118 ± 6 | 0
21 | SGPETQKGVIFYESHGKLEYKDIP (SGPETQKGVIFYESHGKLEYKDIP) | – | – | 84 ± 5 | 0
22 | SHPETQKGVIFYESHGKLEYKDIP (SHPETQKGVIFYESHGKLEYKDIP) | – | – | 125 ± 6 | 0
23 | SKPETQKGVIFYESHGKLEYKDIP (SKPETQKGVIFYESHGKLEYKDIP) | – | – | 151 ± 6 | 0
24 | SLPETQKGVIFYESHGKLEYKDIP (SLPETQKGVIFYESHGKLEYKDIP) | – | – | 126 ± 5 | 0
25 | SMPETQKGVIFYESHGKLEYKDIP (SMPETQKGVIFYESHGKLEYKDIP) | – | – | 140 ± 7 | 0
